Source: patent US20210139588A1

Experiments:
[1] = target: 4NQ mutant (unglycosylated) PD-1 expressed on 293T cells (PD-1-Flag) (human) (UniProt Q15116); experiment: flow cytometry on 293T cells expressing the PD-1 form, labeled secondary antibody; control antibody
[2] = target: N116Q mutant PD-1 expressed on 293T cells (PD-1-Flag) (human) (UniProt Q15116); experiment: as above
[3] = target: N49Q mutant PD-1 expressed on 293T cells (PD-1-Flag) (human) (UniProt Q15116); experiment: as above
[4] = target: N58Q mutant PD-1 expressed on 293T cells (PD-1-Flag) (human) (UniProt Q15116); experiment: as above
[5] = target: N74Q mutant PD-1 expressed on 293T cells (PD-1-Flag) (human) (UniProt Q15116); experiment: as above
[6] = target: wild type (glycosylated) PD-1 expressed on 293T cells (PD-1-Flag) (human) (UniProt Q15116); experiment: as above
[7] = target: 4NQ mutant (unglycosylated) PD-1 expressed on 293T cells (PD-1-Flag) (human) (UniProt Q15116); experiment: flow cytometry on 293T cells expressing the PD-1 variant, anti-mouse IgG-PE secondary, DAPI-negative population gated; percent of cells right of the dashed gate; 293T blank cells give 1.69
[8] = target: N116Q mutant PD-1 expressed on 293T cells (PD-1-Flag) (human) (UniProt Q15116); experiment: as above
[9] = target: N49Q mutant PD-1 expressed on 293T cells (PD-1-Flag) (human) (UniProt Q15116); experiment: as above
[10] = target: N58Q mutant PD-1 expressed on 293T cells (PD-1-Flag) (human) (UniProt Q15116); experiment: as above
[11] = target: N74Q mutant PD-1 expressed on 293T cells (PD-1-Flag) (human) (UniProt Q15116); experiment: as above
[12] = target: wild type (glycosylated) PD-1 expressed on 293T cells (PD-1-Flag) (human) (UniProt Q15116); experiment: as above

N49Q mutant PD-1 expressed on 293T cells (PD-1-Flag) (human), sequence (Q15116 25-288 N49Q): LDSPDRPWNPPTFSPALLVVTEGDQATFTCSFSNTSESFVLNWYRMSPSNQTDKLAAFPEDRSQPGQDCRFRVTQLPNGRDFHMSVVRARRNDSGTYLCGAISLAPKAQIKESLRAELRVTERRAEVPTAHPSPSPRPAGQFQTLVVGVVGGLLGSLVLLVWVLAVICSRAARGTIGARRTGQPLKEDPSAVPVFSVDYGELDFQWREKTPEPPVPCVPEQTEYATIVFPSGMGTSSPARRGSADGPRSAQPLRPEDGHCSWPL
N116Q mutant PD-1 expressed on 293T cells (PD-1-Flag) (human), sequence (Q15116 25-288 N116Q): as the sequence (Q15116 25-288 N49Q) above, with Q25N, N92Q counted along it
4NQ mutant (unglycosylated) PD-1 expressed on 293T cells (PD-1-Flag) (human), sequence (Q15116 other isoform, or with tags, fused parts or gaps mutant): as the sequence (Q15116 25-288 N49Q) above, with N34Q, N50Q, N92Q counted along it
N74Q mutant PD-1 expressed on 293T cells (PD-1-Flag) (human), sequence (Q15116 25-288 N74Q): as the sequence (Q15116 25-288 N49Q) above, with Q25N, N50Q counted along it
N58Q mutant PD-1 expressed on 293T cells (PD-1-Flag) (human), sequence (Q15116 25-288 N58Q): as the sequence (Q15116 25-288 N49Q) above, with Q25N, N34Q counted along it
wild type (glycosylated) PD-1 expressed on 293T cells (PD-1-Flag) (human), sequence (Q15116 25-288): as the sequence (Q15116 25-288 N49Q) above, with Q25N counted along it

An MFI [1] of 26 MFI, an MFI [2] of 28 MFI and an MFI [3] of 31 MFI were found for control mouse IgG (antibody) in this work. For the same substance, the MFI [4] was 106 MFI, the MFI [5] was 26 MFI and the MFI [6] was 52 MFI. It also gave a Unit (%) (cells in the positive gate) [7] of 1.53%, a Unit (%) (cells in the positive gate) [8] of 2.37% and a Unit (%) (cells in the positive gate) [9] of 2.73%. For the same substance, the Unit (%) (cells in the positive gate) [10] was 17.6%, the Unit (%) (cells in the positive gate) [11] was 3.25% and the Unit (%) (cells in the positive gate) [12] was 10.7%.
